Data reported in the DeepSol protein solubility set.

Test: soluble on expression in E. coli; label from the status in PepcDB or PDB records

Sequence	soluble on expression in E. coli
MAIYILEDQIIQAKALEVLLTNILHSRNIYNETIHLFSRSDELLQVAHQDAQLNIFFLDIQMNNHIQAGFEVAKEIRKTDSESLIVFISTHTELVLTSYKYMVSALQFIQKNVDFLDFQKEVETCVDAYIQQKENIKTKSEYIIINLKASSIKMDINDIYFFQTEYDHRVSMVGKNFKREFYGTLSKIEQLHPDLIRVHQSIIINKKYASKLNYKTHLLTMRDGTEVPVSRRYYTQVKALFLT	not soluble
MAKDGGVSCLRRSEMIGIGIGELESPPLDSDQVHVLAVDDSLVDRIVIERLLRITSCKVTAVDSGWRALEFLGLDDDKAAVEFDRLKVDLIITDYCMPGMTGYELLKKIKESTSFKEVPVVIMSSENVMTRIDRCLEEGAEDFLLKPVKLADVKRLRSYLTRDVKVAAEGNKRKLTTPPPPPPLSATSSMESSDSTVESPLSMVDDEDSLTMSPESATSLVDSPMRSPGLA	not soluble
MAKGGKSPKGKKITLNVAKNCIKITFDGRKRLDLSKMGITTFPKCILRLNEIDELDLSRNMIRKIPDSISKFQNLRWLDLHSNYIDKLPESIGQMTSLLFLNVSNNRLTTNGLPVELNQLKNIRTVNLGLNHLDSVPTTLGALKELHEVGLHDNLLTSIPAGISKLPKLKKLNVKRNPFPKPDESDMFVDSIKRLENLYLVEEKDLCSSCLQKCQQARDKLNKIRSMAPSAPRKAIFSNLVSPNSTAKESQEEWSV	not soluble
MAKGYWIAQVDVRDSERYKDYVSTAKPAFERFGANFLARGGSVTELEGTARARNVVIEFPSVQHAIDCYNSPEYQAAAKIRQEVADAEMMIVEGI	soluble
MAKIGENVPLLIDKAVDFMASSQAFREYLNKTPPRDYVPSEVPSESAPIYLQRLEYYRRLYRPKEEERG	not soluble
MAKINLTPKKIYEQEFKTSIRGYDKTEVDEFLDDVIKDYTVYIALVKELQEENAKLKAKATSAPASRPAYASATSEPSHATTNIASASNYDILKRISRLEKEVFGKQIVE	not soluble
MAKIYYDEDASLDILKDKVIAILGYGSQGHAHALNLRDSGLNVIIGLHEGSRSREKAKADGFEVYTPREAAKRADIIMFLIPDTVQPEVYKNEVEPELNSSKTLAFAHGFNIHFRQIVPPKDVDVFMVAPKGPGHLVRWMYTEGKGVPALVAIHQDASGTCKDKALAYAKGIGATRAGVIETTFKEETETDLFGEQMVLCGGVTALIKAGFETLVNAGYQPEVAYFECLHELKLIVDLIYEHGISGMRYSISDTAKYGDVTRGERIYKVVKPVMEKTLEEIQKGEFAREWILENKAGRPVYYALLERDREHLVEKVGEELRKMMPWLGKKELK	soluble
MAKKKSVFTCQECGYQSPKYLGRCPNCSAWSSFVEEVEVQEVKNARVSLNGEKSRPTKLKDVSSINYSRTKTDMDEFNRVLGGGVVPGSLVLIGGDPGIGKSTLLLQVSTQLANKGTVLYVSGEESAEQIKLRSERLGDIDNEFYLYAETNMQSIRSEIEKIKPDFLIIDSIQTIMSPEVSSVQGSVSQVREVTAELMQLAKTNNIATFIVGHVTKEGTLAGPRMLEHMVDTVLYFEGERHHTFRILRAVKNRFGSTNEIGIFEMQSGGLVEVLNPSQVFLEERLDGATGSAIVVTMEGTRPILAEVQALVTPTVFGNAKRTTTGLDFNRVSLIMAVLEKRCGLLLQNQDAYLKSAGGVKLDEPAIDLAVAVAIASSYKEKPTNPQESFIGEIGLTGEIRRVTRIEQRINEASKLGFTKIYAPKNSLAGIEIPKGIDVIGVTTVSQVLKAVFST	not soluble
MAKKLFAFLGIGDYKSVEYYFQNKKEGYKTEYIQEAITKLLNEQDLNVTVFVTAEARKKHWEPENNKGLESRLKKLNINCKAVNIPDGKANDDVWKIFTSVYSEIEFNDEIYVDVTHSLRNIPIIFMSVLNYAKVTKNCTIKGIFYGAYEAKENERAPIYDLTLFDQIGEWSSGVEQLLTTGECEMFCSTVEKTLDPLLREAKGKDELIKLVKKCSKLIKEFYTDLKLVRGKSVLEDGRKLYQVLCEIKALNTEKHITMQPFFHILERVENQVAFFQNENLIENILECVKLCKKFGQYQQAYTFLRENIINYVCINTGLDWKKEDPDRLKAEELIGKLYMRKIKKVQIEVSEDIKSILENGEDFICDDAIELFGELIEFRNDLDHAQFRMINPSKDKITCKLDSFIERFEKYYISK	not soluble
MAKKTSSGRGKLPPGPTPLPVIGNILQIGIKDISKSLTNLSKVYGPVFTLYFGLKPIVVLHGYEAVKEALIDLGEEFSGRGIFPLAERANRGFGIVFSNGKKWKEIRRFSLMTLRNFGMGKRSIEDRVQEEARCLVEELRKTKASPCDPTFILGCAPCNVICSIIFHKRFDYKDQQFLNLMEKLNENIKILSSPWIQICNNFSPIIDYFPGTHNKLLKNVAFMKSYILEKVKEHQESMDMNNPQDFIDCFLMKMEKEKHNQPSEFTIESLENTAVDLFGAGTETTSTTLRYALLLLLKHPEVTAKVQEEIERVIGRNRSPCMQDRSHMPYTDAVVHEVQRYIDLLPTSLPHAVTCDIKFRNYLIPKGTTILISLTSVLHDNKEFPNPEMFDPHHFLDEGGNFKKSKYFMPFSAGKRICVGEALAGMELFLFLTSILQNFNLKSLVDPKNLDTTPVVNGFASVPPFYQLCFIPIHHHH	soluble
MAKKVAICTLLYSRDYLPGALTLAYQLQKLLKHAVVEDEITLCLLIEKKLFGDEFKPQEIALIRSLFKEIIIIEPLKDQEKSIEKNKANLELLKRPELSHTLLKARLWELVQFDQVLFLDADTLPLNKEFFEILRLYPEQTRFQIAAVPDIGWPDMFNTGVLLLIPDLDMATSLQDFLIKTVSIDGADQGIFNQFFNPICNYSKEVLHKVSPLMEWIRLPFTYNVTMPNYGYQSSPAMNFFQQHIRLIHFIGTFKPWSRNTTDYDDHYYQLWRSTQRELYSECHLSNYFTHLQLGNIETETNFYHEPPCLQDLLNHGKRENQKHVDLDITSVDRNASQKSTAEKHDIEKPTSKPQSAFKFDWESTDYLDRVQRAFPKPDT	soluble
MAKLRPYYEESQSAYDISDDFFALFLDPTWVYTCAYFERDDMTLEEAQLAKVDLALDKLNLEPGMTLLDVGCGWGGALVRAVEKYDVNVIGLTLSRNHYERSKDRLAAIGTQRRAEARLQGWEEFEENVDRIVSFEAFDAFKKERYLTFFERSYDILPDDGRMLLHSLFTYDRRWLHEQGIALTMSDLRFLKFLRESIFPGGELPSEPDIVDNAQAAGFTIEHVQLLQQHYARTLDAWAANLQAARERAIAVQSEEVYNNFMHYLTGCAERFRRGLINVAQFTMTK	soluble
MAKLTRLGDLERAVMDHLWSRTEPQTVRQVHEALSARRDLAYTTVMTVLQRLAKKNLVLQIRDDRAHRYAPVHGRDELVAGLMVDALAQAEDSGSRQAALVHFVERVGADEADALRRALAELEAGHGNRPPAGAATET	soluble
MAKPSDSADICQAPVQTAQAPLPKDSALDDLIGYAMRRAQLKLFQNLIGRLSAHDLRPAQFSALAIIEQTPGLMQADLAKALAIEPPQVVPLLNKLEERALAVRVRCKPDKRSYGIFLSKTGETLLRELKQIAVDSDLDSTSALDNQERNDLLRLLKKVYQS	not soluble
MAKRILCFGDSLTWGWVPVEDGAPTERFAPDVRWTGVLAQQLGADFEVIEEGLSARTTNIDDPTDPRLNGASYLPSCLATHLPLDLVIIMLGTNDTKAYFRRTPLDIALGMSVLVTQVLTSAGGVGTTYPAPKVLVVSPPPLAPMPHPWFQLIFEGGEQKTTELARVYSALASFMKVPFFDAGSVISTDGVDGIHFTEANNRDLGVALAEQVRSLL	soluble
MAKSRTIYVCAECGGTSLKWQGKCPHCSAWNTLEETVESAASSAGGHRYAPLAAASPVRSLSEIEARETPRQPTGLDEFDRVLGGGLVAGAVVLIGGDPGIGKSTLLLQALASLSATTKVLYVTGEESAEQVALRARRLGLQTGNVDLLAEIRLEAIQAAVSEQKPTVAVIDSIQTLYSGELTAAPGSVSQVRECAAQLTRLAKQTGIAIVMIGHVTKDGALAGPRVLEHIVDTVLYFEGDTHSSFRLVRAFKNRFGAVNELGVFAMTDRGLRGVANPSALFLSQHQQQVAGSCVLATQEGTRPLLVEVQALVDTSHAPNPRRLTVGLEGNRLAMLLAVMHRHAGVSTYDQDVFVNAVGGVRITEPAADLPVLLAIMSSLRDKPLPAGLVAFGEIGLAGEIRPAPRGQERLREAAKLGFSVALIPKANAPRQPIEGLEIWAVDRLDAALDKLRLEHHHHHH	not soluble
MAKVLVLYYSMYGHIETMARAVAEGASKVDGAEVVVKRVPETMPPQLFEKAGGKTQTAPVATPQELADYDAIIFGTPTRFGNMSGQMRTFLDQTGGLWASGALYGKLASVFSSTGTGGGQEQTITSTWTTLAHHGMVIVPIGYAAQELFDVSQVRGGTPYGATTIAGGDGSRQPSQEELSIARYQGEYVAGLAVKLNG	soluble
MAKVRIYQLAKELGMETQELLELLDQMGVAYKSHASTLEEKDAEAVRELVKEQRGLQEKLAEEERRKSLPRRPPVVVIMGHVDHGKTTLLDYLRKSRIAEKEAGGITQHVGAFEVKTPQGTVVFIDTPGHEAFTTIRQRGAKVADIAVIVIAADDGIMPQTEEAIAHAKAAGAKLIFAINKIDLPQADPEKVKRQLMERGFVPEEYGGDAIVIPISAKTGQGVQDLLEMILLLAELEDYRADPNAEPRGVILESKLDKQAGIIANMLVQEGTFRVGDYVVAGEAYGRIRAMMDADGNQRKEAGPGSAVQVLGFQELPHAGDVVEWVPDLEAAKEIAEERKEERKAREEEEKARRPRTMAELLRAMQEEGRKELNLILRADTQGSLEAIQHILARESTEDVKINILLAQVGAPTESDVLLAQTANAAILAFGVNPPGSVKKKAEEKGVLLKTFRIIYDLVDEVRNMVKGQREPQYKEEVLGQAEVRAIFRLPTGKQVAGCMVTQGRIPRNAEVRVLRDGQVIWQGRIASLKRFKEDVREVAQGYECGIGLDGFDDFREGDVIEAFQMVEVPA	soluble
MAKYQTIEAAVRSEFGKGSARRARVAGQIPAVVYGADVESNLHVTIDHRTFAALVRQEGVNAVLELDIEGQKQLTMIKHIDQNVLTFHIDHLDLLAI	not soluble
MAKYSEQFKLTVVKAYLAGNIGFRKVSSQFSIDSSLLRRWVANYKSHGHTGHRKPGLRYSEAFKRSVLEHKREHGLSLRQTAAHFGIGDPGQIVIWEQQHYSNDLAPYVPKRRKSVAMPKKPYPTAPVIDDDTQKTRDQLMAELEYLRMENAYLKKLEELKEQQRRQKKKPLEHHHHHH	soluble
MALACTDSANSTFSRVDSPTSGPSDQLTTHDLDRHIEKLMRCELIAEQDVKTLCAKAREILAEEGNVQVIDSPVTICGDIHGQFYDLMELFKVGGPVPNTNYLFLGDFVDRGFYSVETFLLLLALKARYPDRMMLIRGNHESRQITQVYGFYDECLRKYGNASVWKHCTEVFDYLSLAAVIDGKVFCVHGGLSPSISTMDQIRVIDRKQEVPHDGPMCDLLWSDPEEGNVGWGLSPRGAGYLFGADASKTFCETNGVDLICRAHQLVMEGYKWHFNEKVLTVWSAPNYCYRCGNVAAILELDENLNKEFTIFEAAPQENRGAPAKKPHADYFL	not soluble
MALATRNLKVIHIKRIENSRSSLIRANHGSKGIIHLILDQAPYHRADKVKEKAKKLVIHLNYLPPYSPNLNPIERLWKVMNEKVRNNRFFNSAKDFRREIERFFTEILPDIGASLGQSINDNFQLEHHHHHH	not soluble
MALIELRHVKKEFSGKAGKVTALKDIDLTVESGDIYGIIGYSGAGKSTLVRLLNGLETPTEGEVEIQGQDIALLPNKELRNFRKKIGMIFQHFNLLWSRTVLENIMLPLEIAGVPKQNRKSRAEELIKLVGLEGRETAYPSQLSGGQKQRVGIARALANNPDILLCDEATSALDPQTTDEVLELLLKINQELNLTVVLITHEMHVIRKICNRVAVMEYGEIVEEGKVIDIFKKPQTEIAKRFIQQEADKNIEETELVVEEMLEQYPNGKIVRLLFHGEQAKLPIISHIVQEYQVEVSIIQGNIQQTKQGAVGSLYIQLLGEEQNILAAIEGLRKLRVETEVIGNE	not soluble
